Laboratory results taken from patent US20240109954A1 (GENERAL HOSPITAL, published 2024).

T1: EBOV GP displayed on vesicular stomatitis virus (VSV) pseudovirions (Ebola virus, UniProt Q05320 33-676)
T1 sequence: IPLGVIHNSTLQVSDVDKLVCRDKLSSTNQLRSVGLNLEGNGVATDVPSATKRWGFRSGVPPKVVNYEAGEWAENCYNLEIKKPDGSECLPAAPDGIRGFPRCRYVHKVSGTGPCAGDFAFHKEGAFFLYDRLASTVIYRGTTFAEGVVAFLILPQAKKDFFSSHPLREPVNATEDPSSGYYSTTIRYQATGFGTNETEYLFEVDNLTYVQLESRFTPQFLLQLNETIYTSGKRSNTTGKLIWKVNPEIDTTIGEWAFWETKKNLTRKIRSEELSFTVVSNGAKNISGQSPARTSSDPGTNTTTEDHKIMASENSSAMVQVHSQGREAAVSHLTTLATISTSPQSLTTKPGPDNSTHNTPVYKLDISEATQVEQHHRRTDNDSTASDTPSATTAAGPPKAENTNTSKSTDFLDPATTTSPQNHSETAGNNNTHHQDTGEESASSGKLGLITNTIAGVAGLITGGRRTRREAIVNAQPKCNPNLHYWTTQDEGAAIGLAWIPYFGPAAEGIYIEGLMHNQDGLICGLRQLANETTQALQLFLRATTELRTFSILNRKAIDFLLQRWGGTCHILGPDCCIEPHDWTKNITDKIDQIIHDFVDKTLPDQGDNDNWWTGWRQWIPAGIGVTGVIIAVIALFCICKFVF

T2: human FcγR2A (R131) (human, UniProt P12318 34-217)
T2 construct: also called huFcγR2A
T2 sequence: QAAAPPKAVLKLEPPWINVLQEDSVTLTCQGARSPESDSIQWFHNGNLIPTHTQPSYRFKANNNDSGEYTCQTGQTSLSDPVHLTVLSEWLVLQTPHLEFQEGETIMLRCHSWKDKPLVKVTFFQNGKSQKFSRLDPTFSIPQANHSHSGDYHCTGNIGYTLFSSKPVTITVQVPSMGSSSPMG

T3: human FcγR2B (human, UniProt P31994 43-217)
T3 construct: also called huFcγR2B
T3 sequence: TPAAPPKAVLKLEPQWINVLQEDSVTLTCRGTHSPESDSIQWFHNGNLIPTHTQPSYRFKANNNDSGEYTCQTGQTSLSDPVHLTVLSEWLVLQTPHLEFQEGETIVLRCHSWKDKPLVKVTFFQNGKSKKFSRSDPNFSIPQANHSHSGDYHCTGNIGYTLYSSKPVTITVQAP

T4: mouse FcγRIIb (mouse, UniProt P08101 30-210)
T4 construct: also called mFcγRIIb; mFcγR2b
T4 sequence: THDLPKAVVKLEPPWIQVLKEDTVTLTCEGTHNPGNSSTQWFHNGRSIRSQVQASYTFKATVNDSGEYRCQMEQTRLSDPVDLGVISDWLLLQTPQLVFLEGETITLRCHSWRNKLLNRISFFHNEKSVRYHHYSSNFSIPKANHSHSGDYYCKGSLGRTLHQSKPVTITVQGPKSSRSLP

T5: mouse FcγRI (mouse, UniProt P26151 25-297)
T5 construct: also called mFcγRI
T5 sequence: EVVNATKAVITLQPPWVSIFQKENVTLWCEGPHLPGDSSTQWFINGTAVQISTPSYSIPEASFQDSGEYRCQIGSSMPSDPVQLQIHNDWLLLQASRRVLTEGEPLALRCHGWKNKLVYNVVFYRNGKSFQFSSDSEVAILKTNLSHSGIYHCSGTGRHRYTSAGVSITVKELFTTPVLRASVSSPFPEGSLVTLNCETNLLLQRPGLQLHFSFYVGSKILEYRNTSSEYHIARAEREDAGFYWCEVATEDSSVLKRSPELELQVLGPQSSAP

T6: mouse FcγRIV (mouse, UniProt A0A0B4J1G0 21-203)
T6 construct: also called mFcγRIV
T6 sequence: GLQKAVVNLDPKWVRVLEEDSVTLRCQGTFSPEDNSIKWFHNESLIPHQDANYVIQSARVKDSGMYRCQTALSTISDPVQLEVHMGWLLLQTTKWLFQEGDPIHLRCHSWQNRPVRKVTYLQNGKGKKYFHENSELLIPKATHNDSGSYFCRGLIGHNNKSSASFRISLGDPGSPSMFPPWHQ

T7: mouse FcγRIII (mouse, UniProt P08508 31-215)
T7 construct: also called mFcγRIII; mFcγR3
T7 sequence: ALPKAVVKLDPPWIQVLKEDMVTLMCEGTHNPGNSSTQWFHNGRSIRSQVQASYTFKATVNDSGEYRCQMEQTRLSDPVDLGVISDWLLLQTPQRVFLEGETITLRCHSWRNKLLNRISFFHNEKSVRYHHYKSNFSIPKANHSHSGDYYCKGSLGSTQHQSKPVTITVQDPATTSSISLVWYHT

B1: VIC16-EFTEA (antibody)
heavy: QVQFQQSGAELAKLGASVKMSCKASGYTFTKYWMHWIKQRPGQGLEWIGYINPSTGYSENNQKFKGKAILTADKSSSTAYMQLSSLTSDDSAVYYCVRGYDSHYYVMDYWGQGTSVTVSSASTKGPSVFPLAPSSKSTSGGTAALGCLVKDYFPEPVTVSWNSGALTSGVHTFPAVLQSSGLYSLSSVVTVPSSSLGTQTYICNVNHKPSNTKVDKKVEPKSCDKTHTCPPCPAPELLAGPSVFLFPPKPKDTLMISRTPEVTCVVVDVEFEDPEVKFNWYVDGVEVHNAKTKPREEQYNSTYRVVSVLTVLHQDWLNGKEYKCKVTNKALPAPEEKTISKAKGQPREPQVYTLPPSREEMTKNQVSLTCLVKGFYPSDIAVEWESNGQPENNYKTTPPVLDSDGSFFLYSKLTVDKSRWQQGNVFSCSVMHEALHNHYTQKSLSLSPGK
light: DIVITQDTASLAVSRGQRATISCRASESVEYYGTTLMQWYQQRPGQPPKLLIYGASNVESGVPARFSGSGSGTDFSLNIHPVEEDDIAMYFCQQSRKVPYTFGGGTKLEIKRTVAAPSVFIFPPSDEQLKSGTASVVCLLNNFYPREAKVQWKVDNALQSGNSQESVTEQDSKDSTYSLSSTLTLSKADYEKHKVYACEVTHQGLSSPVTKSFNRGEC
B2: VIC16-KWES (antibody)
heavy: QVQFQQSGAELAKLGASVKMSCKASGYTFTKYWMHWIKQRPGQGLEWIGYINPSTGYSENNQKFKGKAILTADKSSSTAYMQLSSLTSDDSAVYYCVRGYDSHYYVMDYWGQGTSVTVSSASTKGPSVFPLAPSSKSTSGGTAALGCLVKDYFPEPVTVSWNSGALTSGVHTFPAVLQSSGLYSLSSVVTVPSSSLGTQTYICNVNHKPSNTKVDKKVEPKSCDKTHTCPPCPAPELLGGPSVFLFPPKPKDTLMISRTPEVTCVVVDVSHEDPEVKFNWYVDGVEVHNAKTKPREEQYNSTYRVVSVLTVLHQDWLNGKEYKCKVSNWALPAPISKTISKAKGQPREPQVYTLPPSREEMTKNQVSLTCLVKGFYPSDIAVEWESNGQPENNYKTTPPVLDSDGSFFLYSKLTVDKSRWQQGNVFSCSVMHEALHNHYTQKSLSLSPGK
light: DIVITQDTASLAVSRGQRATISCRASESVEYYGTTLMQWYQQRPGQPPKLLIYGASNVESGVPARFSGSGSGTDFSLNIHPVEEDDIAMYFCQQSRKVPYTFGGGTKLEIKRTVAAPSVFIFPPSDEQLKSGTASVVCLLNNFYPREAKVQWKVDNALQSGNSQESVTEQDSKDSTYSLSSTLTLSKADYEKHKVYACEVTHQGLSSPVTKSFNRGEC
B3: VIC16-SDIEALGA (antibody)
heavy: QVQFQQSGAELAKLGASVKMSCKASGYTFTKYWMHWIKQRPGQGLEWIGYINPSTGYSENNQKFKGKAILTADKSSSTAYMQLSSLTSDDSAVYYCVRGYDSHYYVMDYWGQGTSVTVSSASTKGPSVFPLAPSSKSTSGGTAALGCLVKDYFPEPVTVSWNSGALTSGVHTFPAVLQSSGLYSLSSVVTVPSSSLGTQTYICNVNHKPSNTKVDKKVEPKSCDKTHTCPPCPAPELLAGPDVFLFPPKPKDTLMISRTPEVTCVVVDVSHEDPEVKFNWYVDGVEVHNAKTKPREEQYNSTYRVVSVLTVLHQDWLNGKEYKCKVSNKALPLPEEKTISKAKGQPREPQVYTLPPSREEMTKNQVSLTCLVKGFYPSDIAVEWESNGQPENNYKTTPPVLDSDGSFFLYSKLTVDKSRWQQGNVFSCSVMHEALHNHYTQKSLSLSPGK
light: DIVITQDTASLAVSRGQRATISCRASESVEYYGTTLMQWYQQRPGQPPKLLIYGASNVESGVPARFSGSGSGTDFSLNIHPVEEDDIAMYFCQQSRKVPYTFGGGTKLEIKRTVAAPSVFIFPPSDEQLKSGTASVVCLLNNFYPREAKVQWKVDNALQSGNSQESVTEQDSKDSTYSLSSTLTLSKADYEKHKVYACEVTHQGLSSPVTKSFNRGEC
B4: mIgG1 VIC16 (antibody, V domains shown)
VH: QVQFQQSGAELAKLGASVKMSCKASGYTFTKYWMHWIKQRPGQGLEWIGYINPSTGYSENNQKFKGKAILTADKSSSTAYMQLSSLTSDDSAVYYCVRGYDSHYYVMDYWGQGTSVTVSS
VL: DIVITQDTASLAVSRGQRATISCRASESVEYYGTTLMQWYQQRPGQPPKLLIYGASNVESGVPARFSGSGSGTDFSLNIHPVEEDDIAMYFCQQSRKVPYTFGGGTKLEIK

Experiments:
[1] = biological target: T1, EBOV GP displayed on vesicular …; assay: cell-based or functional assay
[2] = biological target: T2, human FcγR2A (R131); assay: SPR, mAb printed on chip, FcγR injected
[3] = biological target: T8, human FcγR3A (F158) (human, UniProt P08637 17-208); assay: SPR, mAb printed on chip, FcγR injected
T8 construct: also called huFcγR3A

[4] = biological target: T2, human FcγR2A (R131); assay: SPR, mAb printed on chip, FcγR injected; remark: listed apart in the source
[5] = biological target: T3, human FcγR2B; assay: SPR, mAb printed on chip, FcγR injected
[6] = biological target: T9, human FcγR3B (human, UniProt O75015 17-200); assay: SPR, mAb printed on chip, FcγR injected
T9 construct: also called huFcγR3B

[7] = biological target: T4, mouse FcγRIIb; assay: BLI, mAb on anti-human Fab-CH1 sensor, FcγR in solution
[8] = biological target: T5, mouse FcγRI; assay: as above
[9] = biological target: T6, mouse FcγRIV; assay: as above
[10] = biological target: T7, mouse FcγRIII; assay: as above
[11] = biological target: T4, mouse FcγRIIb; assay: as above; remark: listed apart in the source
[12] = biological target: T9, human FcγR3B; assay: SPR, mAb printed on chip, FcγR injected; ND = not detected
[13] = biological target: T6, mouse FcγRIV; assay: BLI, mAb on anti-human Fab-CH1 sensor, FcγR in solution; remark: listed apart in the source
[14] = biological target: T7, mouse FcγRIII; assay: as above; remark: listed apart in the source
[15] = biological target: T1, EBOV GP displayed on vesicular …; assay: cell-based or functional assay; remark: listed apart in the source

T8 sequence (P08637 17-208): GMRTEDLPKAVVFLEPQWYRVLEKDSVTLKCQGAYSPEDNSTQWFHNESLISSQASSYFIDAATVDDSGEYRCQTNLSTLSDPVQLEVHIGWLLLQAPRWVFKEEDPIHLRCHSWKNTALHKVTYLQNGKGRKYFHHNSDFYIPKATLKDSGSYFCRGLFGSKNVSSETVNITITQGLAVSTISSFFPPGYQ
T9 sequence (O75015 17-200): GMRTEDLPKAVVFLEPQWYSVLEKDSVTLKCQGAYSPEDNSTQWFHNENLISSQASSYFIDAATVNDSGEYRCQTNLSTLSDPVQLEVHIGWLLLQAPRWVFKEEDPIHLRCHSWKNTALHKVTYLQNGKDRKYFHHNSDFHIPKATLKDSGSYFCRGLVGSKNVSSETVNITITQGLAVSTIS

Binder | IC50, neutralization of VSV pseudotyped to display EBOV GP [1] | Kd [3] | fold-change relative to IgG1 [3] | Kd [4] | fold-change relative to IgG1 [4] | Kd [5] | fold-change relative to IgG1 [5] | Kd [6] | fold-change relative to IgG1 [6] | fold increase in binding [7] | Kd [8] | fold-change relative to IgG1 [8] | Kd [9] | fold-change relative to IgG1 [9] | Kd [10] | fold-change relative to IgG1 [10] | Kd [11] | fold-change relative to IgG1 [11] | further results
B1 | < 1 mg/L | 6.1 µM | 1 fold | 0.252 µM | 119 fold | 1.2 µM | 19 fold | 475 µM | 0.05 fold | 2 fold | 0.06 µM | 1.3 fold | 0.12 µM | 2 fold | 1.1 µM | 9 fold | 0.49 µM | 30 fold | fold higher KD compared to IgG1 [2]: 120 fold
B2 | < 1 mg/L | 1.6 µM | 3.8 fold | 8.6 µM | 3.4 fold | 224 µM | 0.12 fold |  |  |  | 0.07 µM | 1.1 fold | 0.16 µM | 1.5 fold | 0.02 µM | 0.94 fold | 46 µM | 0.3 fold | binding result [12]: no binding (tested: FcγR 10 µM to 0.005 µM)
B3 |  | 0.675 µM | 9 fold | 1.6 µM | 19 fold | 21 µM | 1.1 fold | 3.2 µM | 7.8 fold | 4 fold | 0.1 µM | 0.8 fold | 0.001 µM | 235 fold | 0.01 µM | 0.16 fold | 0.13 µM | 114 fold | fold increase in KD compared to the VIC16 human IgG1 [2]: 18 fold; fold increase in binding [13]: 14 fold; fold decrease in binding compared to IgG1 [14]: 6 fold
B4 | 0.34 mg/L |  |  |  |  |  |  |  |  |  |  |  |  |  |  |  |  |  | IC50 (read off the curve) [Cont.] [15]: ~0.3 mg/L
